Test results published in US9260500B2, “Peptide and use thereof” (Takeda Pharmaceutical Company Limited, priority 2009, dated 2016).
Non-standard residues stand in square brackets, D forms with d. Primed or numbered codes have the meaning given here. No end group written: not given here. *: point of attachment. Cyclohexanecarbonyl = O=C(C1CCCCC1)*; Lys(Me2) = CN(C)CCCC[C@H](N)C(=O)O; 3Pal = N[C@@H](Cc1cccnc1)C(=O)O; 4Pal = N[C@@H](Cc1ccncc1)C(=O)O; Cha = N[C@@H](CC1CCCCC1)C(=O)O; Isonicotinoyl = O=C(c1ccncc1)*; dIva = CC[C@@](C)(N)C(=O)O; dPip = O=C(O)[C@H]1CCCCN1; Isobutyryl = CC(C)C(=O)*; Iva = CC[C@](C)(N)C(=O)O; Nle = CCCC[C@H](N)C(=O)O; PEG2′ = not defined here; dNMeA = CN[C@H](C)C(=O)O; Abu = CC[C@H](N)C(=O)O; Aib = CC(C)(N)C(=O)O; Sar = CNCC(=O)O

What was measured:
human Y2 receptor [1] = target: T1, human Y2 receptor (Homo sapiens, UniProt P49146); assay: Human Y2 Receptor G Protein Binding Assay (GBA), [35S]GTPγS; assay type: biochemical; settings: EC50 of test compound/EC50 of PYY(3-36) (PYY3-36 taken as 1), hY2R/CHO membrane fraction
T1 construct: expressed in transfected cells; membrane fraction
T1 sequence (P49146 1-381): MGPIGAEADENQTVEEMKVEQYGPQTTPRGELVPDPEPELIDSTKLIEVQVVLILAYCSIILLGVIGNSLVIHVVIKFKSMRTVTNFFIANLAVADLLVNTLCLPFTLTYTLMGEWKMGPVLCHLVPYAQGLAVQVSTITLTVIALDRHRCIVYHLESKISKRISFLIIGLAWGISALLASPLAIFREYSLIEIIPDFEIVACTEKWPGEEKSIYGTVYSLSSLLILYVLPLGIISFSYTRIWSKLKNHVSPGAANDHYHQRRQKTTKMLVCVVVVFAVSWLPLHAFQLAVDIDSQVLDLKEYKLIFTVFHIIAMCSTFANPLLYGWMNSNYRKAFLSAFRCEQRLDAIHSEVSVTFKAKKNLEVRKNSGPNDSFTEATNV
How it was run: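 Agonism measured as [35S]GTPγS binding, read by GF/C filtration and scintillation counting after 120 min at room temperature, using human Y2 membranes at 1 μg protein/mL in pH 7.4 Tris/MgCl2/NaCl/GDP buffer. Compound serially diluted 100 μM–1 nM; EC50 normalized to PYY(3-36) (ratio = compound/PYY).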

human Y2 receptor [2] = target: T1, human Y2 receptor; assay: Receptor Binding Assay (RBA) for Human Y2, [125I]-PYY displacement on hY2R/CHO membrane fraction; settings: IC50 of test compound/IC50 of PYY(3-36) (PYY(3-36) taken as 1)
How it was run: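 Read-out is [125I]-PYY displacement from membranes of CHO/dhfr− cells stably transfected with human Y2R. Membranes were obtained by disrupting cells in a buffer of 10 mM NaHCO3, 5 mM EDTA and protease inhibitors.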

GBA EC50 Ratio (human Y2 receptor [1])	RBA IC50 Ratio (human Y2 receptor [2])	Substance
1.8	1.9	4-Pyridinecarbonyl-[Glu23, D-Pro24, Pya(4)26, Cha27,36, Aib28,31, Lys30]-PYY(23-36) (Isonicotinoyl-E[dP]R[4Pal][Cha][Aib]NK[Aib]TRQR[Cha]-NH2; SMILES C[C@@H](O)[C@H](NC(=O)C(C)(C)NC(=O)[C@H](CCCCN)NC(=O)[C@H](CC(N)=O)NC(=O)C(C)(C)NC(=O)[C@H](CC1CCCCC1)NC(=O)[C@H](Cc1ccncc1)NC(=O)[C@H](CCCNC(=N)N)NC(=O)[C@H]1CCCN1C(=O)[C@H](CCC(=O)O)NC(=O)c1ccncc1)C(=O)N[C@@H](CCCNC(=N)N)C(=O)N[C@@H](CCC(N)=O)C(=O)N[C@@H](CCCNC(=N)N)C(=O)N[C@@H](CC1CCCCC1)C(N)=O) [compound No. 215]
33	50	Cyclohexanecarbonyl-[Nle26, Cha27,28,36, Aib31]-PYY(25-36) (Cyclohexanecarbonyl-R[Nle][Cha][Cha]NL[Aib]TRQR[Cha]-NH2; SMILES CCCC[C@H](NC(=O)[C@H](CCCNC(=N)N)NC(=O)C1CCCCC1)C(=O)N[C@@H](CC1CCCCC1)C(=O)N[C@@H](CC1CCCCC1)C(=O)N[C@@H](CC(N)=O)C(=O)N[C@@H](CC(C)C)C(=O)NC(C)(C)C(=O)N[C@H](C(=O)N[C@@H](CCCNC(=N)N)C(=O)N[C@@H](CCC(N)=O)C(=O)N[C@@H](CCCNC(=N)N)C(=O)N[C@@H](CC1CCCCC1)C(N)=O)[C@@H](C)O) [compound No. 77]
5.3	6.6	Ac-[D-Ser23, Sar24, Cha27,28,36, Aib31]-PYY(23-36) (Ac-[dS][Sar]RH[Cha][Cha]NL[Aib]TRQR[Cha]-NH2; SMILES CC(=O)N[C@H](CO)C(=O)N(C)CC(=O)N[C@@H](CCCNC(=N)N)C(=O)N[C@@H](Cc1c[nH]cn1)C(=O)N[C@@H](CC1CCCCC1)C(=O)N[C@@H](CC1CCCCC1)C(=O)N[C@@H](CC(N)=O)C(=O)N[C@@H](CC(C)C)C(=O)NC(C)(C)C(=O)N[C@H](C(=O)N[C@@H](CCCNC(=N)N)C(=O)N[C@@H](CCC(N)=O)C(=O)N[C@@H](CCCNC(=N)N)C(=O)N[C@@H](CC1CCCCC1)C(N)=O)[C@@H](C)O) [compound No. 111]
0.9	1.3	Ac-[Gln23, D-Pro24, Pya(4)26, Cha27,36, Aib28,31, Lys30]-PYY(23-36) (Ac-Q[dP]R[4Pal][Cha][Aib]NK[Aib]TRQR[Cha]-NH2; SMILES CC(=O)N[C@@H](CCC(N)=O)C(=O)N1CCC[C@@H]1C(=O)N[C@@H](CCCNC(=N)N)C(=O)N[C@@H](Cc1ccncc1)C(=O)N[C@@H](CC1CCCCC1)C(=O)NC(C)(C)C(=O)N[C@@H](CC(N)=O)C(=O)N[C@@H](CCCCN)C(=O)NC(C)(C)C(=O)N[C@H](C(=O)N[C@@H](CCCNC(=N)N)C(=O)N[C@@H](CCC(N)=O)C(=O)N[C@@H](CCCNC(=N)N)C(=O)N[C@@H](CC1CCCCC1)C(N)=O)[C@@H](C)O) [compound No. 210]
1.3	0.92	Ac-[Lys(Me2)23, D-Pro24, Cha27,28,36, Aib31]-PYY(23-36) (Ac-[Lys(Me2)][dP]RH[Cha][Cha]NL[Aib]TRQR[Cha]-NH2; SMILES CC(=O)N[C@@H](CCCCN(C)C)C(=O)N1CCC[C@@H]1C(=O)N[C@@H](CCCNC(=N)N)C(=O)N[C@@H](Cc1c[nH]cn1)C(=O)N[C@@H](CC1CCCCC1)C(=O)N[C@@H](CC1CCCCC1)C(=O)N[C@@H](CC(N)=O)C(=O)N[C@@H](CC(C)C)C(=O)NC(C)(C)C(=O)N[C@H](C(=O)N[C@@H](CCCNC(=N)N)C(=O)N[C@@H](CCC(N)=O)C(=O)N[C@@H](CCCNC(=N)N)C(=O)N[C@@H](CC1CCCCC1)C(N)=O)[C@@H](C)O) [compound No. 160]
31	20	Ac-[D-Iva23, D-Pro24, Cha27,28,36, Aib31]-PYY(23-36) (Ac-[dIva][dP]RH[Cha][Cha]NL[Aib]TRQR[Cha]-NH2; SMILES CC[C@@](C)(NC(C)=O)C(=O)N1CCC[C@@H]1C(=O)N[C@@H](CCCNC(=N)N)C(=O)N[C@@H](Cc1c[nH]cn1)C(=O)N[C@@H](CC1CCCCC1)C(=O)N[C@@H](CC1CCCCC1)C(=O)N[C@@H](CC(N)=O)C(=O)N[C@@H](CC(C)C)C(=O)NC(C)(C)C(=O)N[C@H](C(=O)N[C@@H](CCCNC(=N)N)C(=O)N[C@@H](CCC(N)=O)C(=O)N[C@@H](CCCNC(=N)N)C(=O)N[C@@H](CC1CCCCC1)C(N)=O)[C@@H](C)O) [compound No. 183]
2.2	3.4	Ac-[D-MeAla24, Cha27,28,36, Aib31]-PYY(23-36) (Ac-S[dNMeA]RH[Cha][Cha]NL[Aib]TRQR[Cha]-NH2; SMILES CC(=O)N[C@@H](CO)C(=O)N(C)[C@H](C)C(=O)N[C@@H](CCCNC(=N)N)C(=O)N[C@@H](Cc1c[nH]cn1)C(=O)N[C@@H](CC1CCCCC1)C(=O)N[C@@H](CC1CCCCC1)C(=O)N[C@@H](CC(N)=O)C(=O)N[C@@H](CC(C)C)C(=O)NC(C)(C)C(=O)N[C@H](C(=O)N[C@@H](CCCNC(=N)N)C(=O)N[C@@H](CCC(N)=O)C(=O)N[C@@H](CCCNC(=N)N)C(=O)N[C@@H](CC1CCCCC1)C(N)=O)[C@@H](C)O) [compound No. 110]
1.1	3.4	Ac-[D-Pro24, Pya(4)26, Cha27,36, D-Iva28, Lys30, Iva31]-PYY(23-36) (Ac-S[dP]R[4Pal][Cha][dIva]NK[Iva]TRQR[Cha]-NH2; SMILES CC[C@@](C)(NC(=O)[C@H](CC1CCCCC1)NC(=O)[C@H](Cc1ccncc1)NC(=O)[C@H](CCCNC(=N)N)NC(=O)[C@H]1CCCN1C(=O)[C@H](CO)NC(C)=O)C(=O)N[C@@H](CC(N)=O)C(=O)N[C@@H](CCCCN)C(=O)N[C@@](C)(CC)C(=O)N[C@H](C(=O)N[C@@H](CCCNC(=N)N)C(=O)N[C@@H](CCC(N)=O)C(=O)N[C@@H](CCCNC(=N)N)C(=O)N[C@@H](CC1CCCCC1)C(N)=O)[C@@H](C)O) [compound No. 248]
5.8	9.9	Ac-[D-Pic(2)24, Cha27,28,36, Aib31]-PYY(23-36) (Ac-S[dPip]RH[Cha][Cha]NL[Aib]TRQR[Cha]-NH2; SMILES CC(=O)N[C@@H](CO)C(=O)N1CCCC[C@@H]1C(=O)N[C@@H](CCCNC(=N)N)C(=O)N[C@@H](Cc1c[nH]cn1)C(=O)N[C@@H](CC1CCCCC1)C(=O)N[C@@H](CC1CCCCC1)C(=O)N[C@@H](CC(N)=O)C(=O)N[C@@H](CC(C)C)C(=O)NC(C)(C)C(=O)N[C@H](C(=O)N[C@@H](CCCNC(=N)N)C(=O)N[C@@H](CCC(N)=O)C(=O)N[C@@H](CCCNC(=N)N)C(=O)N[C@@H](CC1CCCCC1)C(N)=O)[C@@H](C)O) [compound No. 119]
1.2	3.3	Ac-[D-Pro24, Pya(3)26, Cha27,28,36, Aib31]-PYY(23-36) (Ac-S[dP]R[3Pal][Cha][Cha]NL[Aib]TRQR[Cha]-NH2; SMILES CC(=O)N[C@@H](CO)C(=O)N1CCC[C@@H]1C(=O)N[C@@H](CCCNC(=N)N)C(=O)N[C@@H](Cc1cccnc1)C(=O)N[C@@H](CC1CCCCC1)C(=O)N[C@@H](CC1CCCCC1)C(=O)N[C@@H](CC(N)=O)C(=O)N[C@@H](CC(C)C)C(=O)NC(C)(C)C(=O)N[C@H](C(=O)N[C@@H](CCCNC(=N)N)C(=O)N[C@@H](CCC(N)=O)C(=O)N[C@@H](CCCNC(=N)N)C(=O)N[C@@H](CC1CCCCC1)C(N)=O)[C@@H](C)O) [compound No. 148]
0.83	1.5	Ac-[D-Pro24, Pya(4)26, Cha27,36, Aib28,31, Orn30]-PYY(23-36) [compound No. 206]
1.6	0.70	Ac-[D-Pro24, Pya(4)26, Cha27,36, D-Iva28,31, Lys30]-PYY(23-36) (Ac-S[dP]R[4Pal][Cha][dIva]NK[dIva]TRQR[Cha]-NH2; SMILES CC[C@@](C)(NC(=O)[C@H](CC1CCCCC1)NC(=O)[C@H](Cc1ccncc1)NC(=O)[C@H](CCCNC(=N)N)NC(=O)[C@H]1CCCN1C(=O)[C@H](CO)NC(C)=O)C(=O)N[C@@H](CC(N)=O)C(=O)N[C@@H](CCCCN)C(=O)N[C@](C)(CC)C(=O)N[C@H](C(=O)N[C@@H](CCCNC(=N)N)C(=O)N[C@@H](CCC(N)=O)C(=O)N[C@@H](CCCNC(=N)N)C(=O)N[C@@H](CC1CCCCC1)C(N)=O)[C@@H](C)O) [compound No. 247]
22	19	Isobutanoyl-[Abu26, Cha27,28,36, Gln30, Aib31]-PYY(25-36) (Isobutyryl-R[Abu][Cha][Cha]NQ[Aib]TRQR[Cha]-NH2; SMILES CC[C@H](NC(=O)[C@H](CCCNC(=N)N)NC(=O)C(C)C)C(=O)N[C@@H](CC1CCCCC1)C(=O)N[C@@H](CC1CCCCC1)C(=O)N[C@@H](CC(N)=O)C(=O)N[C@@H](CCC(N)=O)C(=O)NC(C)(C)C(=O)N[C@H](C(=O)N[C@@H](CCCNC(=N)N)C(=O)N[C@@H](CCC(N)=O)C(=O)N[C@@H](CCCNC(=N)N)C(=O)N[C@@H](CC1CCCCC1)C(N)=O)[C@@H](C)O) [compound No. 90]
0.9	0.9	[(PEG2)23, D-Pro24, Cha27,28,36, Aib31]-PYY(23-36) ([PEG2′][dP]RH[Cha][Cha]NL[Aib]TRQR[Cha]-NH2) [compound No. 118]
